Tests used:
HEK293-T = assay: Luciferase expression in normoxia vs 24 h hypoxia, transiently transfected HEK293-T; type: cell-based, human
Experimental: HEK293-T are seeded at a density of 20%. Once they reached a confluence between 60 and 80%, the media is changed with DMEM (#21885-025—Thermo Scientific) supplemented with 10% FBS (Gibco, 26140). After 3 hours, the cells were transfected by a transfection mix. The transfection mix is prepared by adding DNA ([…] per 6 well plate) and PEI 25 kDA (#23966-1—Polyscience) in a ratio of 1:3 in sterile DPBS (#14190169—ThermoFisher Scientific). After mixing, the transfection mix is incubated at room temperature for 30 minutes and then added directly to the cells. After 16 to 18 h post transfection, the media is changed to DMEM+2% FBS. The transfected DNA was one of the vectors where the promoter constructs (RTV-015, HYBT, RTV-016, HV3C) or a control promoter (CMV-IE) were used to drive luciferase expression and β-galactosidase containing pcDNA6 plasmid. The β-galactosidase containing plasmid was used as internal control for transfection efficiency (Thermofisher, V22020).
(§1) After transfection the cells were incubated for 24 hrs in normoxic conditions (20% oxygen). Induction of the promoters was assessed by using luciferase activity after 24 hrs in normoxia or hypoxia (5% oxygen, 10% carbon dioxide and 85% nitrogen). Hypoxia was achieved by gas displacement in a sealed hypoxia chamber.
Luciferase activity was measured using LARII (Dual Luciferase Reporter 1000 assay system, Promega, E1980).
Media was removed from the cells at the respective time point (0, 3, 5, 24 hrs after induction). The cells were washed once in 300 μl of DPBS. Cells were lysed by adding 100 μl of passive lysis buffer to the cells and incubation with rocking for 15 minutes. The cell debris was pelleted by centrifugation of the plate at max speed in a benchtop centrifuge for 1 min. 10 μl of supernatant was pipetted into white 96-well plate and luminescence measured by addition of 50 μl of LARII substrate.
β-galactosidase activity was measured as per manufacturer's instructions (Mammalian βGalactosidase Assay Kit, 75707/75710, Thermo Scientific) using 25 μl of lysate. 25 μl of lysate was transferred into a microplate well and mixed with 25 μl of β-galactosidase Assay Reagent, equilibrated to room temperature. The mixture was incubated at 37° C. for 30 min and absorbance measured at 405 nm.
Luciferase readouts were normalised to β-galactosidase to produce normalised relative luminometer units (RLUs).

CHO-GSK1SV cell line = assay: SEAP expression and cell number in normoxia vs 24 h hypoxia, stably transfected CHO-GS-KSV1; type: cell-based, chinese hamster; settings: stably integrated CHO-GSK1SV
Experimental: Cell suspensions of 6×10^5 cells per mL are incubated on an orbital shaker set at 8% CO2, 20% O2, 37° C., 85% relative humidity and 140 rpm overnight. 2.86×10^7 cells were centrifuged at 200 g for 3 minutes. Media is then aspirated and cell pellet resuspended in 2 mL fresh CD-CHO media to obtain a concentration of 1.43×10^7 cells per mL. 700 μL of cell suspension was added to each of two electroporation cuvettes each containing […] of linearised DNA in 100 μL of sterile TE buffer (Thermofisher, 12090015). Each cuvette was electroporated, delivering a single pulse of 300V, […] with resistance to infinity. Immediately after delivery of pulse electroplated cells were transferred to Erlenmeyer 125 mL flask containing 20 mL of CD-CHO media pre-warmed to 37° C. Electroporated cells from two cuvettes are combined into a single 125 mL flask to generate one pool of cells. Cells are cultured on an orbital shaker set at 8% CO2, 20% 02, 37° C., 85% relative humidity and 140 rpm. Cells are transferred to fresh CD-CHO media 24 hours after transfection and cell cultures monitored and given fresh CD-CHO media every 2-4 days. Usually after about 10-14 days cell numbers will be high enough to start passaging. Cells were selected at 14 days and then expanded. Induction was performed once doubling time had returned to approx. 24 hrs. The cells assayed in this example were at passage number 15, 17, 19 and 21.
The transfected DNA was pXC-17.4 expression vector (Lonza Biologics plc) where one of the promoter constructs (RTV-015, HYBT, RTV-016, HV3C) or a control promoter (CMV-IE) have been cloned upstream of the SEAP gene, which had been cloned into the multiple cloning site within the vector expression cassette. Promoters were closed into the pXC-17.4 vector using Gibson assembly. The pXC-17.4 expression vector is designed for making stable cell lines in the CHO-GSK1SV cell line as it contains the […] gene which has been knocked out of the cell line. Therefore, selection of cells in glutamine drop-out medium will select for cells that have stably integrated the plasmid.
Stably transfected CHO-GS cells were seeded at 500,000 cells/ml and allowed to grow for 24 hrs, at this point the cells were counted and placed under hypoxic conditions as previously described. After 24 hrs, the cell numbers and the expression of SEAP was measured.
SEAP Reporter Gene Assay, chemiluminescent (Roche, CAT #11 779 842 001) was used to measured SEAP activity as per manufacturers protocol. All reagents and samples were fully pre-equilibrated at room temperature. Culture supernatant was collected from the stably transfected CHO-GS at the specific time points (0 h and 24 h). The supernatant was diluted 1:4 in dilution buffer and heat treated at 65° C. for 30 minutes. The heat-treated sample was then centrifuged for 30 s at maximum speed. 50 μl of the heat-treated sample was then added to 5 μl of inactivation buffer and incubated for 5 min at room temperature. 50 μl of substrate reagent was then added and incubated for 10 min at room temperature. The signal is then read at 477 nm and compared to a calibration curve. SEAP expression was normalized against cell number to ensure that the increase in activity was not due to increased cell numbers and was true induction. The result of this experiment can be seen in FIG. 16 and FIG. 17.

CHO-GSK1SV = assay: Luciferase expression in normoxia vs 24 h hypoxia, transiently transfected CHO-GS suspension cells; type: cell-based, chinese hamster; settings: transient CHO_GS
Experimental: 40 ml of cells were grown in a 250 ml vented Erlenmeyer flask (Sigma-Aldrich CLS431144) at 37° C., 20% O2, 8% CO2 with agitation at 100 rpm. Cells were seeded as at 300,000 cells/ml.
One day before transfection, the cells were counted using a haemocytometer and split to 500,000 cells/ml.
On the day of transfection, the cells are seeded to 1,000,000 cells/ml in 500 μl of appropriate medium (Thermofisher, CD-CHO 10743029) in a 24 well plate. […] of DNA per well was then added to 10 μl of OptiMem medium (Thermofisher; 11058021) and incubated for 5 minutes at room temperature.
Concurrently, 0.625 μl of Freestyle Max reagent (Thermofisher, 16447100) was made up to 10 μl by addition of OptiMem and incubated for 5 minutes at room temperature. After this incubation, both mixes were added to the same tube and incubated at room temperature for 25-30 minutes. The DNA/Max reagent mix (20 μl/well) was then added directly to the cells and the cells incubated at 37 C, 8% CO2 with agitation at 100 rpm.
The transfected DNA was one of the vectors where the promoter constructs (RTV-015, HYBT, RTV-016, HV3C) or a control promoter (CMV-IE) were used to drive luciferase expression and β-galactosidase containing pcDNA6 plasmid. The β-galactosidase containing plasmid was used as internal control for transfection efficiency (Thermofisher, V22020).
as §1, with “chamber. Luciferase activity was measured as described above.” for “chamber.”

B1: HYBT: synthetic hypoxia-inducible promoter, SEQ ID NO: 84/86; 4 HRE3 elements and YB-TATA minimal promoter (nucleic acid)
DNA: GATCTTTGTATTTAATTAAGACCTTGAGTACGTGCGTCTCTGCACGTATGGCGATTAAGACCTTGAGTACGTGCGTCTCTGCACGTATGGCGATTAAGACCTTGAGTACGTGCGTCTCTGCACGTATGGCGATTAAGACCTTGAGTACGTGCGTCTCTGCACGTATGGCGATTAATCCATATGCTCTAGAGGGTATATAATGGGGGCCACTAGTCTACTACCAGAAAGCTTGGTACCGAGCTCGGATCCAGCCACC
modifications: Synp-HYBT
notes: 4 HRE3 elements and YB-TATA minimal promoter
HEK293-T
  luciferase activity in normoxia: almost no luciferase activity
CHO-GSK1SV cell line
  SEAP activity in normoxia: almost no SEAP activity
  inducibility after 24 hours in hypoxia (rank): highest
CHO-GSK1SV
  luciferase activity in normoxia: almost no luciferase activity

B2: RTV-016: synthetic hypoxia-inducible promoter, SEQ ID NO: 82; 6 HRE2 elements spaced by 20 bp and CMV minimal promoter (nucleic acid)
DNA: CTGCACGTAGATGATGCGTAGCTAGTAGTCTGCACGTAGATGATGCGTAGCTAGTAGTCTGCACGTAGATGATGCGTAGCTAGTAGTCTGCACGTAGATGATGCGTAGCTAGTAGTCTGCACGTAGATGATGCGTAGCTAGTAGTCTGCACGTAGTAGTCGTATGCTGATGCGCAGTTAGCGTAGCTGAGGTACCGTCGACGATATCGGATCCAGGTCTATATAAGCAGAGCTCGTTTAGTGAACCGTCAGATCGCCTAGATACGCCATCCACGCTGTTTTGACCTCCATAGAAGATCGCCACC
modifications: Synp-RTV-016
notes: 6 HRE2 elements spaced by 20 bp and CMV minimal promoter
HEK293-T
  luciferase activity in normoxia: almost no luciferase activity
CHO-GSK1SV cell line
  SEAP activity in normoxia: almost no SEAP activity
CHO-GSK1SV
  luciferase activity in normoxia: almost no luciferase activity
